Measured values: article PMC10068899 (Cell Reports, 2023)

Columns and labels:
[1] = target: human p110γ (catalytic subunit of PI3Kγ), co-expressed with mouse p84 or porcine p101 (human, UniProt P48736 1-1102); assay: SEC
[2] = target: human p110γ, biGBac construct co-expressed with human p84 or human p101 (human, UniProt P48736 1-1102); assay: HDX-MS
[3] = target: porcine p110γ (for X-ray crystallography) (porcine, UniProt O02697 1-1102); assay: crystal structure
porcine p110γ (for X-ray crystallography), sequence (O02697 whole entry): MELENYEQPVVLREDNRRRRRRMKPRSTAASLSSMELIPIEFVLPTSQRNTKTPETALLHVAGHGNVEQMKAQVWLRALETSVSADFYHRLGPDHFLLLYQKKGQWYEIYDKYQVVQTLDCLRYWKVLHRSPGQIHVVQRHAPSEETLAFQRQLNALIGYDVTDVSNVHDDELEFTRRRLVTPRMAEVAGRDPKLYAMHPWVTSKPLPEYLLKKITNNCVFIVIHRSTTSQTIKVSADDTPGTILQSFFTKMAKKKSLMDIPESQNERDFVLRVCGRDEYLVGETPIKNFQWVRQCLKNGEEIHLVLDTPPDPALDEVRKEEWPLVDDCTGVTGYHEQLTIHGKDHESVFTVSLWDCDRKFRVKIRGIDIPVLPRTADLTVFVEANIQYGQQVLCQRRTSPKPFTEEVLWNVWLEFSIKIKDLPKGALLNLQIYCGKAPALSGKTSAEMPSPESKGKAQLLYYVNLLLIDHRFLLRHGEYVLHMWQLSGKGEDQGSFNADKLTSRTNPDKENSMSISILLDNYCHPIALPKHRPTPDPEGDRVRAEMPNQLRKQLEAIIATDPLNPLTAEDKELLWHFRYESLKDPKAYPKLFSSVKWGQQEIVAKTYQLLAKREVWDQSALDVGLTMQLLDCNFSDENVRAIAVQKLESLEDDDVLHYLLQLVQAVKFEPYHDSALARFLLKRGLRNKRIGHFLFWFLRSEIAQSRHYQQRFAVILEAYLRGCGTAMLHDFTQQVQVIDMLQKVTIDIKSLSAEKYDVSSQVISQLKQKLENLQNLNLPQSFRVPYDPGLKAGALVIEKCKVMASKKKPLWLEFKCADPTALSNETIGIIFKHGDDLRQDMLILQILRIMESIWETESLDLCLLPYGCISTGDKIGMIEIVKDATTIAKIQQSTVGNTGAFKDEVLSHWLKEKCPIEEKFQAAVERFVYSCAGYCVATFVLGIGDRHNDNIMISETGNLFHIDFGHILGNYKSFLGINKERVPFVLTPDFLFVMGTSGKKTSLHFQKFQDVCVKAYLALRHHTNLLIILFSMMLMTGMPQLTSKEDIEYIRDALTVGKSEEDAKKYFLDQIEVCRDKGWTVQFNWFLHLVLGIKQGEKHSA

human p110γ, biGBac construct co-expressed with human p84 or human p101, sequence (P48736 whole entry): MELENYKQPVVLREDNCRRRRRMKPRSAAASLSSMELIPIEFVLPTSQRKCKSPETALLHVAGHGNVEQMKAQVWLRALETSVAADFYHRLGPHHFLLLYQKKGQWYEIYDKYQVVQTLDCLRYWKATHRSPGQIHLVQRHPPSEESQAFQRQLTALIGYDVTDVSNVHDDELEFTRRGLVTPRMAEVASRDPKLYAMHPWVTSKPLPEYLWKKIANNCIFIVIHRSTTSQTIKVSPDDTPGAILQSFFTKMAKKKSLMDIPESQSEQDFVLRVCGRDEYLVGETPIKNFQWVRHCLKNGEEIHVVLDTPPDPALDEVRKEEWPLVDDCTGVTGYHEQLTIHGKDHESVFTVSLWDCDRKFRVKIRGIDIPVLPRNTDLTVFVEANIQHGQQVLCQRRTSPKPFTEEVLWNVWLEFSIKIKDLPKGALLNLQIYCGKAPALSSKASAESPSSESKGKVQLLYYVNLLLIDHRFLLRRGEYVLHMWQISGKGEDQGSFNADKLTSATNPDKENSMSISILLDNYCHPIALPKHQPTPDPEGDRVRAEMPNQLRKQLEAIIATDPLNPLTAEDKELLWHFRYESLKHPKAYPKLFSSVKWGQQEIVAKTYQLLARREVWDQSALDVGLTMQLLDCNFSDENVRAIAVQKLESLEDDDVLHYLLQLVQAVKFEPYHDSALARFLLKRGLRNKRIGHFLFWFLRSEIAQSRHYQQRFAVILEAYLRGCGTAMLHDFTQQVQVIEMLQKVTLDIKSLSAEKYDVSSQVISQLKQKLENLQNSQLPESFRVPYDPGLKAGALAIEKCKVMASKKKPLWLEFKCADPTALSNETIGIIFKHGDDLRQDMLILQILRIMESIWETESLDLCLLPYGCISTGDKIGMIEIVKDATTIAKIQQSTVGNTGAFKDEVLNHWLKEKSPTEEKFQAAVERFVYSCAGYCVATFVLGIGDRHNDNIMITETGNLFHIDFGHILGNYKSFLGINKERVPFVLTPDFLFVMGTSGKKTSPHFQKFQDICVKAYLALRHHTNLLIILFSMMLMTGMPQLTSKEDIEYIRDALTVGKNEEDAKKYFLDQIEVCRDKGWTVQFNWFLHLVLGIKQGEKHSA
human p110γ (catalytic subunit of PI3Kγ), co-expressed with mouse p84 or porcine p101, sequence (P48736 whole entry): as above

binding result [1]	binding result [2]	Binder	further results
binds	–	mouse p84 (regulatory subunit of PI3Kγ), co-expressed with human p110γ (natural protein) MESSDVELDFQRSVQAVLRELNTPNPALQSNQGMWRWSLHKKVERNPGKSSILVRILLRELEKAESEDGRRVIIPLLLTLMSVLTKATGIPEDLYHRAYTFCTRLLTLPAPYSTVALDCAIRLKTETAVPGTLYQRTVIAEQNLISELYPYQERVFLFVDPELVSASVCSALLLEIQAAQEQQTPEACMRHVVSHALQAALGEACHTGALNRKLQASSRRVLEYYFHAVVAAIEQVASEDSPSRLGHLEKMEEIYCSLLGPATTRRHCVGDLLQDRLPSIPLPSPYITFHLWTDQEQLWKELVLFLRPRSQLRLSADLDALDLQGFRLDRDLARVSTDSGIERDLPLGSDELPDPSSSEMERAALQRKGGIKKRVWPPDFFMPGSWDGPPGLHRRTGRPSGDGELLPGVSRVHTARVLVLGDDRMLGRLAQAYYRLRKRETKKFCLTPRLSLQLYYIPVLAPQVTGQDPEASRKPELGELASFLGRVDPWYESTVNTLCPAILKLAEMPPYLDTSRTVDPFILDVITYYVRMGTQPIYFQLYKVKIFTSLSHDPTEDIFLTELKVKIQDSKSPKEGSSPRRRGAAEGTGAELSMCYQKALLSHRPREVTVSLRATGLVLKAIPAGDTEVSGFFHCTSPNAASATDCSCLHVSVTEVVKSSNLAGRSFTTSTNTFRTSSIQVQSQDQRLLTLWLDKDGRRTFRDVVRFEVSPCPEPCSRTQKSKTSALNSHGQETEKNMAKPNSLLMPINTFSGIIQ	–
–	binds	human p84 (regulatory subunit of PI3Kγ), co-expressed with human p110γ (natural protein) MESSDVELDLQRSVQAVLRELSTQAPALQSNQGMWRWSLHKKVERDPGKSPVLVRILLRELEKAESQDLRHVIIPLLHTVMYVLTKATGITEELYQRIYAFCTRLLTLPTPYCTVALDCAIRLKTEMAVPGTLYQRMVIAEQNLTNELYPYQERVFLFVDPELVSASVCSALLLEIEAAQAQQTPETCMRHVVSHALQAALGEACHAGALHRKLQASPRRTLEHYFHAVVAALEQMASEASPSREGHVERLEEIYCSLLGPAAGRCGGDLVQERPPSIPLPSPYITFHLWTGEEQLWKELVLFLRPRSQLRLSADLEVLDLQGLRPDRELARVSVLSTDSGIERDLPTGADELPAPGSPEMERAGLQRKGGIKKRAWPLDFLMPGSWDGPPGLHRRTGRPSGDGEMLPGVSRLHTARVLVLGDDRMLGRLAQAYHRLRKRETQKFCLTPRLSLQLYYIPVLAPEKPAASRQPELGELATFLGRVDPWYQSNVNTLCPAIHKLAEMPPSLDTSRTVDPFILDVITYYIRMGTQPIYFQIYTVKIFFSDLSQDPTEDIFLIELKVKIQDSKFPKDGFSPRRRGVAEGPGAELSLCYQKALLSHRPREVTVSLRATGLILKAIPASDTEVSGSSHCPLPAAPVTDHTCLNVNVTEVVKSSNLAGKSFSTVTNTFRTNNIQIQSRDQRLLTLSLDKDDQRTFRDVVRFEVAPCPEPCSGAQKSKAPWLNLHGQQEVEAIKAKPKPLLMPINTFSGIVQ	–

The next lines start with the binder.

Binder	binding result [1]	binding result [2]	further results
porcine p101 (regulatory subunit of PI3Kγ), co-expressed with human p110γ (natural protein) MQPGATTCTEDRIQHALERCLHGLSLSRRSTSWSAGLCLNCWSLQELVSRDPGHFLILLEQILQKTREVQEKGTYDLLAPLALLFYSTVLCTPHFPPDSDLLLKAARTYHRFLTWPVPYCSICQELLTFIDAELKAPGISYQRLVRAEQGLSTRSHRSSTVTVLLLNPVEVQAEFLDVADKLSTPGPSPHSAYITLLLHAFQATFGAHCDLSGLHRRLQSKTLAELEAIFTETAEAQELASGIGDAAEARQWLRTKLQAVGEKAGFPGVLDTAKPGKLRTIPIPVARCYTYSWNQDSFDILQEILLKEQELLQPEILDDEEDEDEEDEEEDLDADGHCAERDSVLSTGSAASHASTLSLASSQASGPTLSRQLLTSFVSGLSDGVDSGYMEDIEESAYERPRRPGGHERRGHRRPGQKFNRIYKLFKSTSQMVLRRDSRSLEGSPDSGPPLRRAGSLCSPLDSPTLPPSRAQGSRSLPQPKLSPQLPGWLLAPASRHQRRRPFLSGDEDPKASTLRVVVFGSDRISGKVVRAYSNLRRLENNRPLLTRFFKLQFFYVPVKRSRGTGTPTSPAPRSQTPPLPTDAPRHPGPAELGAAPWEESTNDISHYLGMLDPWYERNVLGLMHLPPEVLCQSLKAEPRPLEGSPAQLPILADMLLYYCRFAARPVLLQVYQTELTFITGEKTTEIFIHSLELGHSAATRAIKASGPGSKRLGIDGDREAVPLTLQIIYSKGAISGRSRWSNMEKLCTSVNLSKACRQQEELDSSTEALTLNLTEVVKRQTPKSKKGFNQISTSQIKVDKVQIIGSNSCPFAVCLDQDERKILQSVIRCEVSPCYKPEKSSLCPPPQRPSYPPAPATPDLCSLLCLPIMTFSGALP	binds	–	–
human p101 (regulatory subunit of PI3Kγ), co-expressed with human p110γ (natural protein) MQPGATTCTEDRIQHALERCLHGLSLSRRSTSWSAGLCLNCWSLQELVSRDPGHFLILLEQILQKTREVQEKGTYDLLTPLALLFYSTVLCTPHFPPDSDLLLKAASTYHRFLTWPVPYCSICQELLTFIDAELKAPGISYQRLVRAEQGLPIRSHRSSTVTVLLLNPVEVQAEFLAVANKLSTPGHSPHSAYTTLLLHAFQATFGAHCDVPGLHCRLQAKTLAELEDIFTETAEAQELASGIGDAAEARRWLRTKLQAVGEKAGFPGVLDTAKPGKLHTIPIPVARCYTYSWSQDSFDILQEILLKEQELLQPGILGDDEEEEEEEEEVEEDLETDGHCAERDSLLSTSSLASHDSTLSLASSQASGPALSRHLLTSFVSGLSDGMDSGYVEDSEESSSEWPWRRGSQERRGHRRPGQKFIRIYKLFKSTSQLVLRRDSRSLEGSSDTALPLRRAGSLCSPLDEPVSPPSRAQRSRSLPQPKLGTQLPSWLLAPASRPQRRRPFLSGDEDPKASTLRVVVFGSDRISGKVARAYSNLRRLENNRPLLTRFFKLQFFYVPVKRSHGTSPGACPPPRSQTPSPPTDSPRHASPGELGTTPWEESTNDISHYLGMLDPWYERNVLGLMHLPPEVLCQQSLKAEAQALEGSPTQLPILADMLLYYCRFAARPVLLQVYQTELTFITGEKTTEIFIHSLELGHSAATRAIKASGPGSKRLGIDGDREAVPLTLQIIYSKGAISGRSRWSNLEKVCTSVNLNKACRKQEELDSSMEALTLNLTEVVKRQNSKSKKGFNQISTSQIKVDKVQIIGSNSCPFAVCLDQDERKILQSVVRCEVSPCYKPEKSDLSSPPQTPPDLPAQAAPDLCSLLCLPIMTFSGALP	–	binds	–
EE-tagged mouse p84 (for X-ray crystallography) (natural protein) MESSDVELDFQRSVQAVLRELNTPNPALQSNQGMWRWSLHKKVERNPGKSSILVRILLRELEKAESEDGRRVIIPLLLTLMSVLTKATGIPEDLYHRAYTFCTRLLTLPAPYSTVALDCAIRLKTETAVPGTLYQRTVIAEQNLISELYPYQERVFLFVDPELVSASVCSALLLEIQAAQEQQTPEACMRHVVSHALQAALGEACHTGALNRKLQASSRRVLEYYFHAVVAAIEQVASEDSPSRLGHLEKMEEIYCSLLGPATTRRHCVGDLLQDRLPSIPLPSPYITFHLWTDQEQLWKELVLFLRPRSQLRLSADLDALDLQGFRLDRDLARVSTDSGIERDLPLGSDELPDPSSSEMERAALQRKGGIKKRVWPPDFFMPGSWDGPPGLHRRTGRPSGDGELLPGVSRVHTARVLVLGDDRMLGRLAQAYYRLRKRETKKFCLTPRLSLQLYYIPVLAPQVTGQDPEASRKPELGELASFLGRVDPWYESTVNTLCPAILKLAEMPPYLDTSRTVDPFILDVITYYVRMGTQPIYFQLYKVKIFTSLSHDPTEDIFLTELKVKIQDSKSPKEGSSPRRRGAAEGTGAELSMCYQKALLSHRPREVTVSLRATGLVLKAIPAGDTEVSGFFHCTSPNAASATDCSCLHVSVTEVVKSSNLAGRSFTTSTNTFRTSSIQVQSQDQRLLTLWLDKDGRRTFRDVVRFEVSPCPEPCSRTQKSKTSALNSHGQETEKNMAKPNSLLMPINTFSGIIQ	–	–	binding result [3]: binds
